Fraction ligated data for 34 variants are collected here from the supplement of paper PMC6755084.

First the molecules themselves.
B1: F1*; the commonest letter at each place (parent)
chain: GAGACCGCAACTGAAAAGTTGTTATCACTTGTCGTAAGACACTTTGGATGGGTTGAAGTTCTGCACGTAGAAGCAAAAGGC

Variants of B1 are the subject of this series. Kind of series: fraction ligated after 30 min (ligated reads / total reads); higher = more ligase activity. The settings on record: with F1*sub RNA substrate (template-directed ligation), 42 °C. A digest of the protocol: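 Ligase ribozyme variants were made from oligo-pool templates by PCR amplification, T7 transcription and gel purification. After gel separation, ligated and unligated bands were reverse transcribed with barcoded primers and sequenced on a MiSeq, with core bases filtered at quality ≥20. The fraction ligated for each variant was the number of ligated reads divided by total reads.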
GAGACCGCAACTGAAAAGTTGTGACCACTTGTCGTAAGACACTTTGGATGGGTTGAAGTTCTGCACGTAGAAGCAAAAGGC [T23G T25C]: the fraction ligated amounted to 0.781. As for GAGACCGCAACTGAAAAGTTGTTTTCACTTGTGGTAAGACACTTTGGATGGGTTGAAGTTCTGCACGTAGAAGCAAAAGGC [A24T C33G], the fraction ligated was 0.336. With GAGACCGCAACTGAAAAGTTGTTATCGCTTGTCGTAAGACACTATGGATGGGTTGAAGTTCTGCACGTAGAAGCAAAAGGC [A27G T44A] the figure was 0.812. Under GAGACCGCAACTGAAAAGTTGTTGTCACTTGTCGTAACACACTTTGGATGGGTTGAAGTTCTGCACGTAGAAGCAAAAGGC [A24G G38C] stands 0.695; under GAGACCGCAACTGAAAAGTTGTTATCACTTGTCGTAAGACATTTTGGATGGGTTGCAGTTCTGCACGTAGAAGCAAAAGGC [C42T A56C], 0.797; under GAGACCGCAACTGAAAAGTTGTTATCACTTGTCGTAAGACTCTGTGGATGGGTTGAAGTTCTGCACGTAGAAGCAAAAGGC [A41T T44G], 0.8.

Regarding GAGACCGCAACTGAAAAGTTGTTATTACTTGTCGTAAGACACTTTGGATGGGTTGTAGTTCTGCACGTAGAAGCAAAAGGC [C26T A56T], the fraction ligated was 0.867.

Consider GAGACCGCAACTGAAAAGTTGTTAGCACTTGTCGTAAGACACTTTAGATGGGTTGAAGTTCTGCACGTAGAAGCAAAAGGC [T25G G46A], for which the fraction ligated was 0.266.

With GAGACCGCAACTGAAAAGTTGTTATCACTTGTCGTAAGAGACTTTGGATGGGTTGTAGTTCTGCACGTAGAAGCAAAAGGC [C40G A56T], the fraction ligated amounted to 0.805.

As for GAGACCGCAACTGAAAAGTTGTTATCACTAGTCGTACGACACTTTGGATGGGTTGAAGTTCTGCACGTAGAAGCAAAAGGC [T30A A37C], the fraction ligated came to 0.831. Under GAGACCGCAACTGAAAAGTTGTTATCACTTGACGTAAGACACGTTGGATGGGTTGAAGTTCTGCACGTAGAAGCAAAAGGC [T32A T43G] stands 0.789; under GAGACCGCAACTGAAAAGTTGTTATCACTTGTCGTAAGACACGTTGGATGGGTTGAAGTTCTGCACGTAGAAGCAAAAGGC [T43G], 0.822.

With GAGACCGCAACTGAAAAGTTGTTGTCACTTGTCGTAAGACACTTTGGATAGGTTGAAGTTCTGCACGTAGAAGCAAAAGGC [A24G G50A], the fraction ligated was 0.449. With GAGACCGCAACTGAAAAGTTGTTATCGCTAGTCGTAAGACACTTTGGATGGGTTGAAGTTCTGCACGTAGAAGCAAAAGGC [A27G T30A] the figure was 0.839; with GAGACCGCAACTGAAAAGTTGTTGTCACTTGTCGTAAGACACTTTGGATGGGTTGAGGTTCTGCACGTAGAAGCAAAAGGC [A24G A57G], 0.762. With GAGACCGCAACTGAAAAGTTGTTATCACTTGTTGTAAGACACTCTGGATGGGTTGAAGTTCTGCACGTAGAAGCAAAAGGC [C33T T44C] the figure was 0.855; with GAGACCGCAACTGAAAAGTTGTTATCACTTGTGGTAAGACACGTTGGATGGGTTGAAGTTCTGCACGTAGAAGCAAAAGGC [C33G T43G], 0.807; with GAGACCGCAACTGAAAAGTTGTTATCACTTGTCGTAATACACCTTGGATGGGTTGAAGTTCTGCACGTAGAAGCAAAAGGC [G38T T43C], 0.814. In the case of GAGACCGCAACTGAAAAGTTGTTATCACTTGTCGTAAGCAACTTTGGATGGGTTGAAGTTCTGCACGTAGAAGCAAAAGGC [A39C C40A], the fraction ligated came to 0.797. GAGACCGCAACTGAAAAGTTGTCATCACTTGTCGTAAAACACTTTGGATGGGTTGAAGTTCTGCACGTAGAAGCAAAAGGC [T23C G38A]: the fraction ligated amounted to 0.815.

Consider GAGACCGCAACTGAAAAGTTGTTATCACTTCCCGTAAGACACTTTGGATGGGTTGAAGTTCTGCACGTAGAAGCAAAAGGC [G31C T32C], for which the fraction ligated came out at 0.796. Under GAGACCGCAACTGAAAAGTTGTTATCACTAGTCGTAAGACACTTTGGACGGGTTGAAGTTCTGCACGTAGAAGCAAAAGGC [T30A T49C] stands 0.467; under GAGACCGCAACTGAAAAGTTGTTATCACTTGTAGTAAGACAATTTGGATGGGTTGAAGTTCTGCACGTAGAAGCAAAAGGC [C33A C42A], 0.879. As for GAGACCGCAACTGAAAAGTTGTTATCACTTGTAGTAAGACAGTTTGGATGGGTTGAAGTTCTGCACGTAGAAGCAAAAGGC [C33A C42G], the fraction ligated turned out to be 0.84. With GAGACCGCAACTGAAAAGTTGTTATCACTTGTCATAAGACACTTTCGATGGGTTGAAGTTCTGCACGTAGAAGCAAAAGGC [G34A G46C] the figure was 0.798.

Turning to GAGACCGCAACTGAAAAGTTGTTACCACTTATCGTAAGACACTTTGGATGGGTTGAAGTTCTGCACGTAGAAGCAAAAGGC [T25C G31A], the fraction ligated worked out at 0.742.

GAGACCGCAACTGAAAAGTTGTTATCACTTGTCGTCAGACACTTTGGTTGGGTTGAAGTTCTGCACGTAGAAGCAAAAGGC [A36C A48T]: the fraction ligated is 0.8.

Regarding GAGACCGCAACTGAAAAGTTGTTATCACTTATCGTAAGACAATTTGGATGGGTTGAAGTTCTGCACGTAGAAGCAAAAGGC [G31A C42A], the fraction ligated was 0.834. Take GAGACCGCAACTGAAAAGTTGTTATCACTTGTCGTAAGACACTCTGGATGGGTTGTAGTTCTGCACGTAGAAGCAAAAGGC [T44C A56T]: the fraction ligated is 0.78. With GAGACCGCAACTGAAAAGTTGTTATCACTTGTCGTAAGACACTCTGGATGGGTTGGAGTTCTGCACGTAGAAGCAAAAGGC [T44C A56G] the figure was 0.793; with GAGACCGCAACTGAAAAGTTGTTATCACATGTCGTAAGACAGTTTGGATGGGTTGAAGTTCTGCACGTAGAAGCAAAAGGC [T29A C42G], 0.867; with GAGACCGCAACTGAAAAGTTGTAATCACTTGTCGTAAGACACTTTGGATGGGTTGACGTTCTGCACGTAGAAGCAAAAGGC [T23A A57C], 0.805. Under GAGACCGCAACTGAAAAGTTGTTATCACTTGGCGTAAGACACCTTGGATGGGTTGAAGTTCTGCACGTAGAAGCAAAAGGC [T32G T43C] stands 0.81; under GAGACCGCAACTGAAAAGTTGTTATCGCTTGTCGTAAGACACTTTGGGTGGGTTGAAGTTCTGCACGTAGAAGCAAAAGGC [A27G A48G], 0.788.
